{"source": "patent US20240277861A1", "about": "“ANTI-HEPATITIS B VIRUS AGENT TARGETING HOST FACTOR LIPG” (PUROTECH BIO, INC., priority 2021, published 2024)", "molecules": {"B1": {"name": "10M-LN4N: fusion of ASGR3-10M scFv, cleavage sequence, LIPH4-N4BP1a, S28, nuclear localization signal (SEQ ID NO: 133) (protein)", "chain": "RVRRSNCRINTFRTVPIEQKDYKDDDDKHHHHHHHPFVIGAGVLGALGTGIGGITTSTQFYYKPAAKRVKLD", "modifications": "cleavage sequence + LIPH4-N4BP1a + Flag-tag + His-tag + S28 + nuclear localization signal"}, "B2": {"name": "10M-LN4SN: fusion of ASGR3-10M scFv, cleavage sequence, LIPH4-N4BP1b, S28, nuclear localization signal (SEQ ID NO: 134) (protein)", "chain": "RVRRSNCRINTFRDYKDDDDKHHHHHHHPFVIGAGVLGALGTGIGGITTSTQFYYKPAAKRVKLD", "modifications": "cleavage sequence + LIPH4-N4BP1b + Flag-tag + His-tag + S28 + nuclear localization signal"}, "B3": {"name": "10M-LLNTSN: fusion of ASGR3-10M scFv, cleavage sequence, LIPH4-LNTNBs, S28, nuclear localization signal (SEQ ID NO: 131) (protein)", "chain": "B2 chain with S5L, I9H, F12A, R13G", "modifications": "cleavage sequence + LIPH4-NTNBs + Flag-tag + His-tag + S28 + nuclear localization signal"}, "B4": {"name": "10M-LLNTSN-S39: fusion of ASGR3-10M scFv, cleavage sequence, LIPH4-LNTNBs, S39, nuclear localization signal (SEQ ID NO: 132) (protein)", "chain": "RVRRLNCRHNTAGDYKDDDDKHHHHHHHPFVIGAGVLGALGTGIGGITTSTQFYYKLSQELNGDMERPAAKRVKLD", "modifications": "cleavage sequence + LIPH4-NTNBs + Flag-tag + His-tag + S39 + nuclear localization signal"}}, "key": {"[1]": {"molecular_target": "T1, full-length form of LIPG (500 amino acids) (Homo sapiens, UniProt Q9Y5X9)", "T1 construct": "A pull-down assay was performed on the full-length form of LIPG (500 amino acids); made in house", "T1 sequence (Q9Y5X9 21-500)": "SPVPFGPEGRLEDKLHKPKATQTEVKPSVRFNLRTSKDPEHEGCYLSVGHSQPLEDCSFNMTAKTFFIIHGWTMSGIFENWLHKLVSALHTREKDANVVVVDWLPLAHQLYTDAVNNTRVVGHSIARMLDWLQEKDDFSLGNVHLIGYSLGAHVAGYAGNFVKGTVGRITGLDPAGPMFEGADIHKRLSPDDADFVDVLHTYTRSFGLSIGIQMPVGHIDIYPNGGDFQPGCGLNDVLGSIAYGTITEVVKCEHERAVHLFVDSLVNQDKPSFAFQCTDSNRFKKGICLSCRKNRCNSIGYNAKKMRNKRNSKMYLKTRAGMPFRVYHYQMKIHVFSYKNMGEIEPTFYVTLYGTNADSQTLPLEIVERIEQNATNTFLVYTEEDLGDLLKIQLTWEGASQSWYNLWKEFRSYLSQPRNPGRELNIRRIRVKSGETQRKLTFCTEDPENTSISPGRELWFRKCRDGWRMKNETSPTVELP", "test": "Pull-down assay of LIPH4 peptides against full-length LIPG", "type": "binding", "conditions": "culture supernatant of transfected 293T cells, compared with no bait", "experimental": "Human embryonic kidney 293T cells were cultured in DMEM (1.0 g/l glucose) with L-Gln and Sodium Pyruvate, liquid (Nacalai) supplemented with 10% FCS ([…]). Plating was performed in a 1:2 ratio on 6 cm dishes 24 hours before transfection. Lipofectamine 2000 in a volume of 20 μl was added to 500 μl of Opti-MEM 1 and allowed to stand for 5 minutes at room temperature, and the resulting mixture was gently added to a 6 cm dish containing a mixture of 500 μl of Opti-MEM 1 and 8 μg of a plasmid DNA. The resulting mixture was allowed to stand for 20 minutes at room temperature, and then added to a 6 cm dish containing 293T cells, and the cells were cultured at 37° C. in 5% CO2 for 4 to 6 day.\nResin (Streptavidin MagneSphere Paramagnetic Particles) (Promega) was washed using the MagneSphere Technology Magnetic Separation Stand (tweleve-position). The resin in a volume of 40 μl was added to each 1.5 ml tube, and after removal of the solution, washed three times with 1 ml of PBS. The resin was transferred to new tubes and mixed with 0.5 nmol (109 μl) of LIPG-BioFLAGHis or with 109 μl of PBS as a no bait control, and the resulting mixtures were agitated at 4° C. for 1 hour by rotation on a mini-disk rotor (BIO CRAFT) to allow binding. After removal of the solution, the resin was washed three times with 1 ml of TBST (containing 0.05% Tween 20). The resin was transferred to new tubes, blocked with 1 ml of ELISA BSA buffer (TBS, 0.05%, Tween 20, 1% BSA. Nacalai Tesque, Inc.) at 4° C. for 1 hour, and then washed three times with 1 ml of ELISA BSA buffer. The resin was transferred to new tubes, and 1000 μl of the culture supernatant containing expressed KIgk-LIPH4 was mixed with […] of the resin treated with LIPG-BioFLAGHis or without the bait, and the resulting mixtures were agitated at 4° C. for 1 hour and 30 minutes by rotation on a mini-disk rotor (BIO CRAFT) to allow binding. After removal of the solution, the resin was washed three times with […] of TBST (Tween 20, 0.1%), and the recovered resin was used for Western blotting.\nEach resin was mixed with water and LDS sample buffer (4×), 0.2 mM DTT, heated at 70° C. for 10 minutes, and then subjected to SDS-PAGE. SDS-PAGE was performed using 4-12% Bis-Tris gel and NuPAGE MES-SDS electrophoresis buffer (Invitrogen) at 200 V and 400 mA for 35 minutes. After electrophoresis, transfer was performed using Mini Format, 0.2-μm PVDF, Single-application (BIO-RAD) Trans-Blot Turbo. The membrane was blocked with a Blocking One Buffer: TBST (1:9) solution and reacted with an anti-Flag-HRP (Sigma: A8592) diluted 2:3000 in a Blocking One Buffer: TBST (1:9) solution. Detection was performed using ECL (Enhanced ChemiLuminescence) on a ChemiDoc (BIO-RAD).\nA pull-down assay was performed on the full-length form of LIPG (500 amino acids) with LIPH4 peptides (FIG. 16)."}, "HBV [2]": {"system": "HBV", "test": "Anti-HBV activities of LIPG-binding peptides in PXB cells", "type": "cell-based", "conditions": "for anti-HBV activity (effect to reduce HBV DNA and cccDNA copy numbers): HBV-infected PXB cells", "experimental": "(§1) An infection source medium was prepared by adding the HBV-infected chimeric mouse serum (PhoenixBio), DMSO, and a PEG 8000 solution to the PXB cell culture medium (PhoenixBio) at final concentrations of 5 genome equivalents/cell, 2%, and 4%, respectively. Various synthesized peptides were diluted to different concentrations in this medium, and the resulting media were added individually to PXB cells (PhoenixBio). After the cells were left to stand in a 5% CO2 incubator at 37° C. for 20 to 28 hours, the medium was removed and the wells were washed once with PBS(−). DMSO and one of the various synthesized peptides were added to the PXB cell culture medium at a final concentration of 2% and different concentrations, respectively, and the resulting media were added individually to the PXB cells to perform medium exchange. This medium exchange was performed at 1, 5, and 9 days post infection and samples were collected at 14 days post infection.\n(§2) SMI TEST™ M EX-R&D (Medical & Biological Laboratories) was used to extract DNA from the samples. The extracted DNA was used as a template for quantitative PCR of HBV-DNA. For cccDNA detection, the extracted DNA was treated with T5 exonuclease (New England Biolabs), and the resulting DNA was used as a template for quantitative PCR. The T5 exonuclease treatment was performed at 37° C. for 30 minutes, and the DNase was later inactivated by heating at 80° C. for 15 minutes. The following primer set was used for detection.\nPXB cells, fresh human liver cells isolated from PXB mice (human hepatocyte chimeric mice), are human liver cells that maintain human liver functions at high levels and allow persistent infection with hepatitis B virus (HBV). Therefore, PXB cells were used to evaluate the anti-HBV activities of LIPG-binding peptides. LIPG-binding peptides were chemically synthesized because they were added extracellularly (Eurofins Genomics K.K.). Clones that had shown excellent results in the studies of Examples 10 and 1 (KIgk-LIPH4-23, KIgk-LIPH4-74, KIgk-LIPH4-15, KIgk-L1l 14-2. KIgk-LIPH14-14. KIgk-LIPH4-87) were selected for chemical synthesis of the peptides. […] Therefore, LIPH4-NTNA and LIPH4-NTNB, which share a common sequence with netrins and consist of 16 amino acids, were also chemically synthesized. The chemically synthesized peptides were dissolved in DMSO for use in HBV assays in PXB cells.\nNext, the anti-HBV activity of full-length Netrin-1 was examined in PXB cells. A full-length human recombinant Netrin-1 protein consisting of 604 amino acid residues (molecular weight: 67.5 kDa, SEQ ID NO: 28) was purchased from R&D Systems. United States. A shRNA with the sequence […]ctcgagc[…] TTTTTTG (single underline: terminal sequences for cloning, lowercase letters: hairpin loop sequence) (SEQ ID NO: 64) was used to knock down the Netrin-1 gene."}, "HBV [3]": {"system": "HBV", "test": "Anti-HBV activities of LIPG-binding peptides delivered into PXB cells-2 (scFv fusions, 4% PEG)", "type": "cell-based", "conditions": "presence of 4% PEG", "experimental": "as §1, §2\nThe anti-HBV activities of LIPG-binding peptides delivered into cells were evaluated using PXB cells and anti-ASGR single-chain antibody-LIPG-binding peptide fusions. The anti-HBV activity was evaluated in the presence of 4% PEG. The evaluation of the anti-HBV effect in the presence of PEG is more stringent than under the conditions in Example 18 without the presence of PEG because the HBV-DNA and cccDNA copy numbers are increased in the presence of PEG. Of the fusions prepared in Example 16, 10M-LN4SN, 10M-LN4N, 10M-LLNTSN, and 10M-LLNTSN-S39 were used. According to the timeline shown in FIG. 42A, the anti-HBV activities of the fusions were evaluated using the methods described in “(10-5) Infection experiment using PXB cells” and “(10-6) Quantification of HBV-DNA and cccDNA”."}, "[4]": {"conditions": "PXB cells, Netrin-1 gene knocked down, vs control"}}, "note": "Positions count from the first letter of the chain named."}
{"molecule": "CPCVNGATRHRPTSLC (LIPH4-16) [KIgk-LIPH4-16]", "values": [{"measurement": "binding to LIPG in pull-down assay", "setting": "[1]", "result": "positive"}]}
{"molecule": "GADLRRGCC (LIPH4-87) [KIgk-LIPH4-87]", "values": [{"measurement": "binding to LIPG in pull-down assay", "setting": "[1]", "result": "positive"}]}
{"molecule": "IRNVNHSDH (LIPH4-74) [KIgk-LIPH4-74]", "values": [{"measurement": "binding to LIPG in pull-down assay", "setting": "[1]", "result": "positive"}]}
{"molecule": "LCECRDVLSCYYITDT (LIPH4-90) [KIgk-LIPH4-90]", "values": [{"measurement": "binding to LIPG in pull-down assay", "setting": "[1]", "result": "positive"}]}
{"molecule": "LNCRHNTAGRHCHYCK (LIPH4-NTNB)", "values": [{"measurement": "anti-HBV activity (effect to reduce HBV DNA and cccDNA copy numbers)", "setting": "HBV [2]", "result": "high anti-HBV activity"}, {"measurement": "anti-HBV activity (effect to reduce HBV DNA and cccDNA copy numbers)", "setting": "HBV [2]; listed as polypeptide (12)", "result": "as strongly as the polypeptides (5) to (10)"}]}
{"molecule": "LNVGYVFYP (LIPH4-15) [KIgk-LIPH4-15]", "values": [{"measurement": "binding to LIPG in pull-down assay", "setting": "[1]", "result": "positive"}]}
{"molecule": "LVPWLRYAY (LIPH4-12) [KIgk-LIPH4-12]", "values": [{"measurement": "binding to LIPG in pull-down assay", "setting": "[1]", "result": "positive"}]}
{"molecule": "Netrin-1 shRNA: shRNA of SEQ ID NO: 64 used to knock down the Netrin-1 gene (guide CCGGGACTGCGATTCCTACTGCAAGCTCGAGCTTGCAGTAGGAATCGCAGTCTTTTTTG) [reference compound]", "values": [{"measurement": "HBV-DNA copy number", "setting": "HBV [2]; [4]", "result": "remarkably increased"}, {"measurement": "cccDNA copy number", "setting": "HBV [2]; [4]", "result": "remarkably increased"}]}
{"molecule": "RCRQSWNTM (LIPH4-14) [KIgk-LIPH4-14]", "values": [{"measurement": "binding to LIPG in pull-down assay", "setting": "[1]", "result": "positive"}]}
{"molecule": "RKSGGVCLNCRHNTAG (LIPH4-NTNA)", "values": [{"measurement": "anti-HBV activity (effect to reduce HBV DNA and cccDNA copy numbers)", "setting": "HBV [2]", "result": "as strongly as the polypeptides (5) to (10)"}]}
{"molecule": "SLYTGFRAH (LIPH4-2) [KIgk-LIPH4-2]", "values": [{"measurement": "binding to LIPG in pull-down assay", "setting": "[1]", "result": "positive"}]}
{"molecule": "B1", "values": [{"measurement": "HBV-DNA copy number", "setting": "HBV [3]", "result": "remarkably reduced"}, {"measurement": "cccDNA copy number", "setting": "HBV [3]", "result": "remarkably reduced"}]}
{"molecule": "B2", "values": [{"measurement": "HBV-DNA copy number", "setting": "HBV [3]", "result": "remarkably reduced"}, {"measurement": "cccDNA copy number", "setting": "HBV [3]", "result": "remarkably reduced"}]}
{"molecule": "B3", "values": [{"measurement": "HBV-DNA copy number", "setting": "HBV [3]", "result": "remarkably reduced"}, {"measurement": "cccDNA copy number", "setting": "HBV [3]", "result": "remarkably reduced"}]}
{"molecule": "B4", "values": [{"measurement": "HBV-DNA copy number", "setting": "HBV [3]", "result": "remarkably reduced"}, {"measurement": "cccDNA copy number", "setting": "HBV [3]", "result": "remarkably reduced"}]}
